From patent US20250270343A1 (Alector, published 2025)
Changes are numbered by the printed parent chain. Blank lines part the entries; values can stand above or below the binder they belong to.

Tests used:
[1] = molecular target: T1, full-length untagged human GPNMB expressed on cells (human, UniProt Q14956 23-572); assay: FACS, FS293-huGPNMB+ cells
T1 construct: also used here for GPNMB on human monocyte-derived macrophages in the functional assays; also called huGPNMB; Freestyle293-huGPNMB+
T1 sequence: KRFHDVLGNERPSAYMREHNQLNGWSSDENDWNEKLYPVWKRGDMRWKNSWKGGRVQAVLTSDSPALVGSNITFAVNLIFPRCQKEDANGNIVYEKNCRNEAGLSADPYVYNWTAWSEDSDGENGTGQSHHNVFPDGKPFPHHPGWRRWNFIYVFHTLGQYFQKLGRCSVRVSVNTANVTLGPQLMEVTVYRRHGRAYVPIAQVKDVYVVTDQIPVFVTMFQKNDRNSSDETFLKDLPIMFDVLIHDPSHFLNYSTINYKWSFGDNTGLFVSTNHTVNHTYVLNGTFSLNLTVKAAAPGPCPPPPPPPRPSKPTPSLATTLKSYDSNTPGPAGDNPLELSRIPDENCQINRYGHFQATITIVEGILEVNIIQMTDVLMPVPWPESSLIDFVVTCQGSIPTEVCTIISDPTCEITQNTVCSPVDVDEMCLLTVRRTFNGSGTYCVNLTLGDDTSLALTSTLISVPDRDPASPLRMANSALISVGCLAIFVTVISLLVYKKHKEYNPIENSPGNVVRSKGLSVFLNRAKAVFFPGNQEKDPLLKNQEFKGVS
Protocol: Recombinant anti-GPNMB antibodies of the present disclosure were examined for their ability to bind human and/or mouse GPNMB expressed on Freestyle293-huGPNMB+ or B16F10 cells, respectively. B16F10 cells are a murine melanoma cell line from a C57BL/6J mouse that endogenously express high levels of mouse GPNMB. The antibodies were also tested for their ability to bind to a human macrophage cell line (U937 cells) engineered to express human GPNMB. Cells were harvested, plated at 100,000 cells/well in a 96-well round bottom plate, and incubated in 100 μl FACS buffer (PBS containing 2% FBS, 2 mM EDTA) containing anti-GPNMB monoclonal antibodies of the present disclosure for 30 minutes on ice. Cells were then washed and incubated in 100 ul FACS buffer containing 1 μg/ml APC-conjugated anti-human IgG secondary antibody for 30 minutes in ice. Cells were washed twice in cold FACS buffer and acquired on a BD FACS Canto. Data analysis and calculation of MFI values was performed with FlowJo (TreeStar) software version 10.0.7.
Importantly, several anti-GPNMB antibodies of the present disclosure also bound to the human macrophage cell line U937 cells engineered to express human GPNMB (U937/huGPNMB+) (FIG. 2C). In FIG. 2C, the first data point in each pair corresponds to U937/huGPNMB+ cells, and the second data point in each pair corresponds to U937/huGPNMB− cells. No anti-GPNMB antibodies bound to U937 cells deficient in human GPNMB expression (U937/huGPNMB−).

[2] = molecular target: T2, soluble human GPNMB (recombinant extracellular domain) (human, UniProt Q14956 23-498); assay: SPR Carterra, Ab immobilized
T2 construct: also called huGPNMB; recombinant human GPNMB extracellular domain; not shown: C-terminal polyhistidine or Avi-His tag
T2 sequence: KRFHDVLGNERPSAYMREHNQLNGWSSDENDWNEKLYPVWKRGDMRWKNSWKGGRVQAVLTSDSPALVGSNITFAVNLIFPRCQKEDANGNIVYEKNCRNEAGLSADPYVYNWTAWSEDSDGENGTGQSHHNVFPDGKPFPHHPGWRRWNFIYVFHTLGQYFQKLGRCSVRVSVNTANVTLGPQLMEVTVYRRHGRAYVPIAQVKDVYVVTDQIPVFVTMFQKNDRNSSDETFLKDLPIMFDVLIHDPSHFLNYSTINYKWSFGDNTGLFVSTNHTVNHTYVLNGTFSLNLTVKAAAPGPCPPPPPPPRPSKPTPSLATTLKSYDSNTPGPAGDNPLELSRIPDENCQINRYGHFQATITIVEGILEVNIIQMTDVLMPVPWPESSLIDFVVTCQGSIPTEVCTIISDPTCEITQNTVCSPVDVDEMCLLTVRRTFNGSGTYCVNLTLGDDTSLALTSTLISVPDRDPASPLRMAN
Protocol: Binding kinetics of human anti-GPNMB IgG1 antibodies of the present disclosure to human, cynomolgus, and mouse GPNMB were evaluated using a Carterra LSA instrument (Carterra, Salt Lake City, UT). […] A HC200M sensor chip (Carterra) was activated using the single channel flow cell with a 7-minute injection of a 1:1:1 mixture of 100 mM MES pH 5.5, 100 mM sulfo-NHS, 400 mM EDC (all reconstituted in MES pH 5.5; 100 μl of each mixed in vial immediately before running assay). After switching to the multi-channel array flow cell, the antibodies were injected over the activated chip in a 96-spot array for 15 minutes. The remaining unconjugated active groups on the chip were then blocked by injecting 1M Ethanolamine pH 8.5 (Carterra) for 7 minutes using the single channel flow cell.
After priming with running buffer (HBS-EP+, Teknova) with 0.5 mg/ml BSA (Sigma), the immobilized anti-GPNMB antibodies were tested for their ability to bind to several forms of recombinant GPNMB extracellular domain, including human, cynomolgus, and mouse orthologs as described above. Estimates of affinity were generated by injecting each analyte over the entire antibody array using the single channel flow cell. GPNMB analytes were diluted to 2.5, 7.4, 22, 67, 200, and 600 nM in running buffer, and injected in serial from lowest to highest concentration without regeneration. Two buffer blanks were run between each series (one species per series). Data were processed and analyzed using Kinetics high-throughput kinetics analysis software (Carterra).

[3] = molecular target: T1, full-length untagged human GPNMB …; assay: FACS titration, FS293-huGPNMB+ cells
Protocol: Cell-based binding measurements were also performed to measure the apparent affinities of anti-GPNMB antibodies of the present disclosure to cell-surface expressed GPNMB. Serial dilutions of the monoclonal anti-GPNMB antibodies were added to 100,000 Freestyle293-huGPNMB+ or B16F10 cells and allowed to achieve binding equilibrium at 4° C. After addition of fluorescently labeled secondary antibody and brief washing steps, MFI values as a function of titrated antibody concentration was recorded via FACS analysis. Curves were fit using nonlinear regression analysis with Graphpad Prism 6 software.

MFI fold over background [1]: 59.9 fold | Kd [2]: 8.8 nM | koff [2]: 0.00057 s⁻¹ | kon [2]: 69000 M⁻¹ s⁻¹ | EC50 [3]: 0.22 nM
B1: anti-GPNMB antibody GPN-24 (antibody, human IgG1, V domains shown)
VH: QVQLQQPGAELVKPGASVKMSCKASGYTFTSYWITWVKQRPGQGLEWIGDIHPGSGRSNYNEKFKNKATLNVDTSSSTVYMQLSSLTSEDSAVYYCARDYLFAYWGQGTLVTVSA
VL: DIQMTQSPSSLSASLGERVSLTCRASQEISGYLSWLQQKPDGTIKRLIYSTSTLDSGVPKRFSGSRSGSDYSLTISSLESEDFADYYCLQYTSSPPTFGGGTKLEIK
notes: chimeric

MFI fold over background [1]: 66.5 fold | Kd [2]: 16.6 nM | koff [2]: 0.00029 s⁻¹ | kon [2]: 19000 M⁻¹ s⁻¹ | EC50 [3]: 18.4 nM
B2: anti-GPNMB antibody GPN-07 (antibody, human IgG1, V domains shown)
VH: QVQLQQSGAEQVKPGASVKLSCKASGYTFTSYYMYWVKQRPGQGLEWIGEINPSNGGTYFNEKFKSKATLTVDKSSSTAYMHLSSLTSEDSAVYYCTRGGTYYAYWGQGTLVTVSA
VL: B1 VL with I29M, Y32H, S50A, T51A, T92A, S94Y, P96Y
notes: chimeric

MFI fold over background [1]: 44.8 fold | Kd [2]: 120 nM | koff [2]: 0.0034 s⁻¹ | kon [2]: 28000 M⁻¹ s⁻¹ | EC50 [3]: 0.33 nM
B3: anti-GPNMB antibody GPN-22 (antibody, human IgG1, V domains shown)
VH: QVQLQQPGAERVKPGASVKMSCKASGYTFTSYWITWVKQRPGQGLEWIGDIFPGSGSTNYHEKFKSKATLTVDTSSSTAYMQLSSLTSEDSAVYYCSRGYFGSSFSDYWGQGTSVTVSS
VL: B1 VL with A25T, T92A, G100S
notes: chimeric

MFI fold over background [1]: 34.4 fold | Kd [2]: 5 nM | koff [2]: 0.00012 s⁻¹ | kon [2]: 26000 M⁻¹ s⁻¹ | EC50 [3]: 1.12 nM
B4: anti-GPNMB antibody GPN-30 (antibody, human IgG1, V domains shown)
VH: EVQLQQSGPELVNPGASVRISCKASGYSFTGYYMNWVKQSPEKSLEWIGEINPNTGFTTYNQNFKAKATLTVDKSSSTAYIQLKSLTSEDSAVYYCTRPSPSFDYWGQGTTLTVSS
VL: B1 VL with V19G, Y32H, S50A, T51A, T92A, S94Y, P96Y
notes: chimeric

MFI fold over background [1]: 46.3 fold | Kd [2]: 11.1 nM | koff [2]: 0.00027 s⁻¹ | kon [2]: 27000 M⁻¹ s⁻¹ | EC50 [3]: 1.09 nM
B5: anti-GPNMB antibody GPN-26 (antibody, human IgG1, V domains shown)
VH: EVQLQQSGPELVKPGASVKISCKASGYSFTGYYMNWVRQSPEKSLEWIGEINPSTGITTYNQKFKAKATLTVDKSSNTAFMQLKSLTSEDSAVYYCARPASWFDYWGQGTLVTVSA
VL: B1 VL with Y32H, S50A, T51A, T92A, S94Y, P96Y
notes: chimeric

MFI fold over background [1]: 42.7 fold | Kd [2]: 11.4 nM | koff [2]: 0.00028 s⁻¹ | kon [2]: 26000 M⁻¹ s⁻¹ | EC50 [3]: 0.5 nM
B6: anti-GPNMB antibody GPN-25 (antibody, human IgG1, V domains shown)
VH: B5 VH with R38K, S54G, T55S, N77S, F80Y, M81L, D104A
VL: B1 VL with L21F, T22I, Y32H, S50A, T51A, T92A, S94Y, P96Y
notes: chimeric

MFI fold over background [1]: 53.8 fold | Kd [2]: 11.7 nM | koff [2]: 0.00028 s⁻¹ | kon [2]: 26000 M⁻¹ s⁻¹ | EC50 [3]: 0.76 nM
B7: anti-GPNMB antibody GPN-31 (antibody, human IgG1, V domains shown)
VH: B5 VH with R38K, S44N, S54N, I57G, N77T, F80Y, A97T
VL: B1 VL with Y32H, S50A, T51A, S65R, T92A, S94Y, P96Y, E105A
notes: chimeric

MFI fold over background [1]: 35.1 fold | Kd [2]: 9 nM | koff [2]: 0.00011 s⁻¹ | kon [2]: 12000 M⁻¹ s⁻¹ | EC50 [3]: 1.31 nM
B8: anti-GPNMB antibody GPN-09 (antibody, human IgG1, V domains shown)
VH: B2 VH with Q11L, M34I, S66N, H82Q, T101N
VL: B1 VL with Y32H, S34G, S50A, T51A, S52L, T92A, S94Y, P96Y
notes: chimeric

Kd [2]: 111 nM | koff [2]: 0.002 s⁻¹ | kon [2]: 18000 M⁻¹ s⁻¹
B9: anti-GPNMB antibody GPN-43 (antibody, human IgG1, V domains shown)
VH: EVQLQQSGPELVKPGASVKISCKASGYTFTDYYMNWVRQSHGKSLEWIGDINPYHGGSTYNQKIKVKATLTVDKSSSTAYMELRSLTSEDSAVYYCARNWPYFDYWGQGTTLTVSS
VL: DIQMTQSPASLSASVGETVTITCRASENIYSFLVWYQQKQGKSPQLLVYNAKTLAEGVPSRFSGSGSGTQFSLKISSLQPEDFGSYYCQHHFGTPPYTFGGGTKLEIK
notes: chimeric

Kd [2]: 6.1 nM | koff [2]: 8.3e-05 s⁻¹ | kon [2]: 14000 M⁻¹ s⁻¹
B10: anti-GPNMB antibody GPN-42 (antibody, human IgG1, V domains shown)
VH: DVKLVESGEDLVKPGGSLKLSCAASGFTFSSYAMSWVRQTPEKRLEWVAYISSGGDYIYYADTVKGRFTISRDNARNTLYLQMSSLKSEDTAMYYCTRDRYYDYDVRDYYTMDYWGQGTSVTVSS
VL: DVMMTQTPLSLPVSLGDQASISCRSSQSLVHSNGNTYLHWFLQKPGQSPKLLIFRVSNRFSGVPDRFSGRGSGTDFTLKISRVEAEDLGVYFCSQTTHVPRTFGGGTTLEIK
notes: chimeric

MFI fold over background [1]: 56.2 fold | Kd [2]: 14.4 nM | koff [2]: 0.00095 s⁻¹ | kon [2]: 69000 M⁻¹ s⁻¹ | EC50 [3]: 0.3 nM
B11: anti-GPNMB antibody GPN-11 (antibody, human IgG1, V domains shown)
VH: QVQLQQPGAELVKPGASVKLSCKASGYTFTSYWMHWVKQRPGQGLEWIGEINSSNGRTNYNEKFKTKATLTVDRSSSTAYMQLSSLTSEDSAVYYCARLGYYSGSPYPYYAMDCWGQGTSVTVSS
VL: DIQMTQSPASLSVSVGETVTITCRASENIYSNLAWYQQKQGKSPQLLVYAATNLADGVPSRFSGSGSGTQYSLKINSLQSEDFGSYYCQHFWNTPPTFGGGTKLEIK
notes: chimeric

MFI fold over background [1]: 43.2 fold | Kd [2]: 42.5 nM | koff [2]: 0.0038 s⁻¹ | kon [2]: 91000 M⁻¹ s⁻¹ | EC50 [3]: 0.17 nM
B12: anti-GPNMB antibody GPN-01 (antibody, human IgG1, V domains shown)
VH: QVQLQQSGAELAKPGASVKLSCKASGYNFTNYCIHWVKQRPGQGLEWIGYINPSTGYTEYNQKFKDKATLTADKSSTTAYMQLSSLTSEDSAVYYCARGRYDEFTYWGQGTLVTVSA
VL: DIVLTQSPASLAVSLGQRATISCRASKSVSTSTYSYMHWYQQKPGQPPKLLIYLASNLESGVPARFSGSGSGTDFTLNIHPVEEEDAATYYCQHSRELPPTFGGGTKLEIK
notes: chimeric
